{
  "source": "the DeepSol protein solubility set",
  "data": [
    {"assay": "soluble on expression in E. coli; label from the status in PepcDB or PDB records", "values": [
      {"sequence": "MGKKPISILLMGTDTGALGRSYKGRTDSMMVVTINPKTKKTTITSIPRDLGVTIPGYESKSPSKINAAYAFGQAGTAIKTVQQVFNVPIDFYVLVNMGGMEKVVDEAGGVDITPTLSFTYDGYTFTKGVKTHMNGKKALAYSRMRYDDPQNDYGRQTRQRAVLTAIISKSSSVSSLLNKDFIDSISNETKTDFTFNDLVDLAKNYRSSTGSIEETHAQGDGQMVNGQSMEIVSNTELQRVTNFIRNGLSLEHEKTGTAALSASSANTSDSSVEAANINAGNLEHHHHHH", "soluble on expression in E. coli": "soluble"},
      {"sequence": "MHANGIFFVPKYSSKYGKKQQTEKQWPVPEMGWQPGAVNSNFALQSSALILIGGFIRIIKVDSNATSCIHFGGIDAKPLLLQMNAYSLPAAEIRTKNGRIVARVF", "soluble on expression in E. coli": "not soluble"},
      {"sequence": "MTASSDPHVIFVGSGINSLVSAALLATRGKRVLVLERNDRLGGCIRTEELFPGYHHEVMSSWYPLFVGSPGYAELKPALEQAGLAFLCPDYTTGLVWPDGRGLALKQDLNDAVQRLEALAPGDGAALGAMAARLFGPDAALTFGLLGQNPYGWAMLKLLFGQWRQRGTDGLAAFAADALETFRRWSERTLRSDLARALIAPWVLHSGLGPDDAGSALIGKLTFASVVSGGMPVVKGGGSRLVEALARVIEQHGGTLMTGTPVEQVLTEGQGRRRRATGVAVTGGRRLRAQQAVVCNVTPQQLYGRLLPEMPQPLRERAEGYRYGRGDMQIHFALNAPPAWREAELCKVPLVHLTESLEQVCASVTQANNGLLPSRPTLGIGQPTVADPSRAPAGGWILWIQMQELPTRLKGDAAGEIPVPADGRWNEAVREAFADRVQARLERVMPGLAERIVGRRAYSPADLEVLNCNLVGGDPYSGVCSPDQFFWLRPFAGSQGARAHRTPLANVFHIGASTHPGPGLGAGSGFMVAQHLSPR", "soluble on expression in E. coli": "not soluble"},
      {"sequence": "MYLSHFGLEQLPFHLTPDTELFLGLAPHFEAIQTLSAAIEMGEGVSKLTGEVGTGKTMVCRMLLTHLGDEVALIYLPNPMLSGEELRQAVAAELQLDVASPVRVVEQIQTRLIELHQQGKRVVALVDEAQALSDEALETLRLFGNLETEQTKLLQIVLIGQPELDVRLAQHHLRQFRQRITFNANLRPLTQAETEVYIESRLQKAQAPYPLFNATLKKAVWRASQGIPRLINQICHKALLLAWHEQSPLVNQHHLFAAIHDTYDSCKPRFKTPILWGWSKP", "soluble on expression in E. coli": "not soluble"},
      {"sequence": "MNRKRKWQIPPPSEPVTDEYLTSVTIGERKPLNDRIQLAEYDLRWPSMFSVAADKIRSALSEKALLVEHVGSTSVPGLAAKLIIDMLLGVTDSADEKSYVLPLEQQGFVLQAREPGWYEHRFFRLKSGDMEWHLHVFSAECEEIDRMLAFRNWLRVHDDDRQRYENVKRTLAARTWKHMQNYADAKSDIVREILGRAQDDHVVGITSEAVSAAFRFR", "soluble on expression in E. coli": "not soluble"},
      {"sequence": "MNKYDIAVIGGGMVGAAVAVGFAKQGRSVVVVEGAEPKAFDAAQALDVRVSAISHQSVKLLESLDAWSAIEAMRVCPYRRLETWEHPECRTRFHSDELSLDQLGYIVENRLIQLGLWQAFAQFDNLTVKCPERLKDIDFNDGNRITLESGEQFDANWIIGADGANSKVRQLAGIGVTAWDYRQHCMLINVKTELPQQDITWQQFTPSGPRSFLPLCSLTEDGQEVGQGSLVWYDSPKRIKQLCAMTKPQLREEIVRHFPKELGDIEVLQFGSFPLTRRHAQSYSHRGCVLVGDSAHTINPLAGQGVNLGFKDVDVLLSVTQGQDELTDALLAKYERTRRPDNLLMQTGMDFFYKGFSNDLGPLKFARNAALKLAENSGPIKAQVLKYALGMLEHHHHHH", "soluble on expression in E. coli": "not soluble"},
      {"sequence": "MGSDKIHHHHHHMTVEYTASDLATYQNEVNEQIAKNKAHLESLTHPGSKVTFPIDQDISATPQNPNLKVFFFDIDNCLYKSSTRIHDLMQQSILRFFQTHLKLSPEDAHVLNNSYYKEYGLAIRGLVMFHKVNALEYNRLVDDSLPLQDILKPDIPLRNMLLRLRQSGKIDKLWLFTNAYKNHAIRCLRLLGIADLFDGLTYCDYSRTDTLVCKPHVKAFEKAMKESGLARYENAYFIDDSGKNIETGIKLGMKTCIHLVENEVNEILGQTPEGAIVISDILELPHVVSDLF", "soluble on expression in E. coli": "not soluble"},
      {"sequence": "MGSDKIHHHHHHNTEQQLDSEVSEPTKTMRSQQHSDGAAAITHLTPLDLPLDSQGLTDEDSQQINSLLNQLHESAMSADWDTYFDLYHPDAAFIGTDATERWNMVHFRRYASPTQGWRYDLQARHLLQIEDVVVFDEQLYSPEYGISRGTGALVNTTKGWKIAQYHLSFPIPNAKAKRITTLIKQ", "soluble on expression in E. coli": "not soluble"},
      {"sequence": "MRNLAIVDLGSNSARMAVSRLHANGTAQEIKRVKEDTRLSEGMGTAHVLQPAAIERTIKALLNFRRLYEKMPNTDVIGITTAAVRMAQNQTEFLNQVKQEVGLDLRVLSGDDEAYYDYLGVANSLVIHDCLILDTGGASCELILVKNGRKQQLISIPFGAVTLSEQFGLDDLVPSASLFRAQMFLRNRLADIWWLSEAVHFPIILLGGANRTLARINRRRQQKLKVEDIHGYRLKTETVFHTFLDLLSRSKKGRQEISGMEYDRADIIVGGMLPLVTLLQMLDSDRVIFSESGVREGIISEHLNQLEHHHHHH", "soluble on expression in E. coli": "not soluble"},
      {"sequence": "MANELTWHDVLAEEKQQPYFLNTLQTVASERQSGVTIYPPQKDVFNAFRFTELGDVKVVILGQDPYHGPGQAHGLAFSVRPGIAIPPSLLNMYKELENTIPGFTRPNHGYLESWARQGVLLLNTVLTVRAGQAHSHASLGWETFTDKVISLINQHREGVVFLLWGSHAQKKGAIIDKQRHHVLKAPQPSPLSAHRGFFGCNHFVLANQWLEQHGETPIDWMPVLPAESE", "soluble on expression in E. coli": "soluble"},
      {"sequence": "MGSDKIHHHHHHMFRTNPLKIIMLGPSLLQQGGISGYEKLFLEYAPSEIHICHIITHEEGTIAFKIMVFLKAIWKFIWMLISEEIDIVQLEISQRGSVFRQSIMILLAWVFHKPIILHAHGSQFHIFYAGLANWIQKLLSWIFCKCQRLIVLSESWKSFYIDTLGLKSEQVVVFYNPVKVPTEVPSRSFSTKLNLLFLGRIGQRKGAFDLIKAFSSLPTEYQTRSIMVMAGDGDIEKARDLVTTLNLQDYIQLPGWIGSDERDILLSKADIFVLPSYNEGLPLAMLEAMAWELPVIVTPVGGIPEIVTQSENGLIVNPGNVEQLSNAIKSLIENEALRLSLGAKARTSVFPLDIKKHWVDFIDLYNLVLNTMEEHSKG", "soluble on expression in E. coli": "not soluble"},
      {"sequence": "MGSDKIHHHHHHMEVFCDVDDFCAVFIPEWEKTLLTDGTRKRQRAGRMTMSEVMTIIILFQMSHHRDFKNFYIGYLAHFYKSAFPNLLSYTRFLEVMPTALVPLCSDFTCLKSEPTGTEFVDSTRIKVCHNLRIHRHKTLAGLACRGKGTMGWFYGFKLHLIVNHQGGIVAAKVTPANVHDTKPMNEMVRSDMDKLYADKGFISKALSSELQEKGVTLVTNVRKNMKEKVMSLWDRAMLSRRFIIETINDQLKNISQIEHSRHRSGHGFMLNMIAGLIAYQLKDNKPQLNITSAEFNAIAVMAR", "soluble on expression in E. coli": "not soluble"},
      {"sequence": "MGHHHHHHSHDSKACISIGNQNFEVKADDLEPIMELGRGAYGVVEKMRHVPSGQIMAVKRIRATVNSQEQKRLLMDLDISMRTVDCPFTVTFYGALFREGDVWICMELMDTSLDKFYKQVIDKGQTIPEDILGKIAVSIVKALEHLHSKLSVIHRDVKPSNVLINALGQVKMCDFGISGYLVDSVAKTIDAGCKPYMAPERINPELNQKGYSVKSDIWSLGITMIELAILRFPYDSWGTPFQQLKQVVEEPSPQLPADKFSAEFVDFTSQCLKKNSKERPTYPELMQHPFFTLHESKGTDVASFVKLILGD", "soluble on expression in E. coli": "not soluble"},
      {"sequence": "SLSGGKYVDSEGHLYTVPIREQGNIYKPNNKAMADELSEKQVYDAHTKEIDLVNRDPKHLNDDVVKIDFEDVIAEPEGTHSFDGIWKASFSTFTVTKEG", "soluble on expression in E. coli": "soluble"},
      {"sequence": "SDERDVLWVGVCAMPKKVESEPMQRILAALTSSRVAHFEPMIFDAKTLFERPIHKWPVCDALIAFHSEGFPLERAIAYAELRRPYCLNGLREQRMLLDRSKVYEVLARERVPVPRHIVVRHDGADVGRTDTRFVEHDDYIEYCGERLFKPFVEKPIDAEDHRVCIYYARPLYGRRRLFRKTANQSSVFEPGWRRVRREGAFIYEEFIPSEHQSDIKVYAVGPEYAYAERRKSPVVDGIVERNAHGKELRFPVELSTAERCVAATITAAFRQFVCGFDLIRHADGNAFYVNDVNGFSFVKGSQSYYESCGRILAEHLARECARSAAVDGE", "soluble on expression in E. coli": "soluble"}
    ]}
  ]
}
